Measurements as given in US20230277618A1 (BROAD INSTITUTE, published 2023).

Biological target: T1, KIDINS220 (kinase D interacting substrate 220), endogenous in HEK-293T cells (human, UniProt Q9ULH0 1-1771)
T1 construct: whole, on cells; Endogenous protein of the 293 cells, detected by immunoblot after co-immunoprecipitation; also called ARMS; SINO
Assay: co-immunoprecipitation by V5 tag from HEK-293T cells, immunoblot for endogenous KIDINS220

T1 sequence (Q9ULH0 whole entry): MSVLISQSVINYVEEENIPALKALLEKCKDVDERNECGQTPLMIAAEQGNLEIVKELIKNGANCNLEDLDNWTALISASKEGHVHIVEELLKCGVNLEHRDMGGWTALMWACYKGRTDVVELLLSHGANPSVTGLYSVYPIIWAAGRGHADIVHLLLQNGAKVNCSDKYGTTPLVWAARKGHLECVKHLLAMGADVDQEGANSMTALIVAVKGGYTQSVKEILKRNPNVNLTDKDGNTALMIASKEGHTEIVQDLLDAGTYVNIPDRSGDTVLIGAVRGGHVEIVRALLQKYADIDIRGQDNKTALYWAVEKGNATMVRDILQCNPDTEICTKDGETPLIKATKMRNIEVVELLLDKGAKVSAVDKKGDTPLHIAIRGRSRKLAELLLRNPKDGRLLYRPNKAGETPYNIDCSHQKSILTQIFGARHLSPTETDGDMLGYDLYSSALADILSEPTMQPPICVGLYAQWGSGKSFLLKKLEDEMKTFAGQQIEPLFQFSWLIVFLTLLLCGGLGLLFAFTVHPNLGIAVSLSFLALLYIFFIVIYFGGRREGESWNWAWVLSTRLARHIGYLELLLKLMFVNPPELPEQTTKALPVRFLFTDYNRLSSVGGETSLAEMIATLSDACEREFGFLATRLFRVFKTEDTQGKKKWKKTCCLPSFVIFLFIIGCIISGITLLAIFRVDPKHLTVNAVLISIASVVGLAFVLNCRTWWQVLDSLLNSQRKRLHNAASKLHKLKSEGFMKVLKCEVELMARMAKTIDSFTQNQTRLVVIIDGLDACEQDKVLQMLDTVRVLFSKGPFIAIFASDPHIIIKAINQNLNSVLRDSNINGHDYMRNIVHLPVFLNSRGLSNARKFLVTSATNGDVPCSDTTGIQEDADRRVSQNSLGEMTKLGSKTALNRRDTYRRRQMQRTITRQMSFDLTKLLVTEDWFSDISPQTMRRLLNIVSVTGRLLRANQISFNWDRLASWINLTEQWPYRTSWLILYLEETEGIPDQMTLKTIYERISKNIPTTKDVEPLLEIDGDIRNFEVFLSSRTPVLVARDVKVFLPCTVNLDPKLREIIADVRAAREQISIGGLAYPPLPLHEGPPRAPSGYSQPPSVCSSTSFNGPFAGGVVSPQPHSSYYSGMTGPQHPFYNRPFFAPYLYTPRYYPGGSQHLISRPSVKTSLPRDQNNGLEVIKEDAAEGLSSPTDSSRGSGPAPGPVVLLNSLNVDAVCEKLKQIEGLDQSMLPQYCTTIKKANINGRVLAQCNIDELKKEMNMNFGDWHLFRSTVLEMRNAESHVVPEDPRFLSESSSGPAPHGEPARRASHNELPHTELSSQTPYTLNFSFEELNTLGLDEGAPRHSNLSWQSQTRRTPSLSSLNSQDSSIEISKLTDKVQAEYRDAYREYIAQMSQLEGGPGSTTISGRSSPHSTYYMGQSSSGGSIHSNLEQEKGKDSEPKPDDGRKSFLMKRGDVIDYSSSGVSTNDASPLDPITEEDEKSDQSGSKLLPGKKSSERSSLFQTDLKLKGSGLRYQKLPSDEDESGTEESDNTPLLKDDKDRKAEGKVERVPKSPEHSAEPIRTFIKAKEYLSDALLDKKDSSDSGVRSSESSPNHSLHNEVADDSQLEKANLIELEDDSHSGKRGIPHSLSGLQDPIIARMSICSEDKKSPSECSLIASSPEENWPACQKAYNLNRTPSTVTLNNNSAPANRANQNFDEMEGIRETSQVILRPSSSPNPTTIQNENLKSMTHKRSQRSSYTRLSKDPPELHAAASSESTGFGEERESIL

B1: XPR1 SPX domain only construct with C-terminal V5 tag (other, human, UniProt Q9UBH6 1-224, looked up, not shown: small tags and cut ends)
chain: MKFAEHLSAHITPEWRKQYIQYEAFKDMLYSAQDQAPSVEVTDEDTVKRYFAKFEEKFFQTCEKELAKINTFYSEKLAEAQRRFATLQNELQSSLDAQKESTGVTTLRQRRKPVFHLSHEERVQHRNIKDLKLAFSEFYLSLILLQNYQNLNFTGFRKILKKHDKILETSRGADWRVAHVEVAPFYTCKKINQLISETEAVVTNELEDGDRQKAMKRLRVPPLG
notes: domain: SPX domain; also called SPX domain only constructs; N-terminal SPX domain of XPR1
binding result: no binding
